# Key:
# Assay in all cases: Y2H (α-galactosidase activity)
# SlTRM25 fragment = settings: parent: est. 4.2; read off a plot
# SlTRM5 fragment = settings: read off a plot
# SlTRM17/20a fragment = settings: read off a plot
# SlOFP20 = settings: read off a plot
# OVATE = settings: read off a plot
# OVATE^D280R = settings: read off a plot
# OVATE D280V = settings: read off a plot
# OVATE E299V = settings: read off a plot
# SlOFP20^D265R = settings: read off a plot
# SlOFP20 D265V = settings: read off a plot
# SlOFP20 D284V = settings: read off a plot
substance,measurement,setting,value
OVATE D280R,response (milliunits/(ml×cell)),SlTRM25 fragment,0.1
same,response (milliunits/(ml×cell)),SlTRM5 fragment; parent: est. 7.1,0.1
same,response (milliunits/(ml×cell)),SlTRM17/20a fragment; parent: est. 7.2,0.1
OVATE D280V,response (milliunits/(ml×cell)),SlTRM25 fragment,0.1
same,response (milliunits/(ml×cell)),SlTRM5 fragment; parent: est. 7.1,0.1
same,response (milliunits/(ml×cell)),SlTRM17/20a fragment; parent: est. 7.2,1.6
OVATE E299V,response (milliunits/(ml×cell)),SlTRM25 fragment,2.5
same,response (milliunits/(ml×cell)),SlTRM5 fragment; parent: est. 7.1,3.1
same,response (milliunits/(ml×cell)),SlTRM17/20a fragment; parent: est. 7.2,5
SlOFP20 D265R,response (milliunits/(ml×cell)),SlTRM25 fragment,0.1
same,response (milliunits/(ml×cell)),SlTRM5 fragment; parent: est. 5.2,0.1
same,response (milliunits/(ml×cell)),SlTRM17/20a fragment; parent: est. 7.9,5.3
SlOFP20 D265V,response (milliunits/(ml×cell)),SlTRM25 fragment,0.1
same,response (milliunits/(ml×cell)),SlTRM5 fragment; parent: est. 5.2,0.1
same,response (milliunits/(ml×cell)),SlTRM17/20a fragment; parent: est. 7.9,6
SlOFP20 D284V,response (milliunits/(ml×cell)),SlTRM25 fragment,0.25
same,response (milliunits/(ml×cell)),SlTRM5 fragment; parent: est. 5.2,2.5
same,response (milliunits/(ml×cell)),SlTRM17/20a fragment; parent: est. 7.9,7.2
SlTRM5 fragment R374V,response (milliunits/(ml×cell)),SlOFP20; parent: est. 5.2,3.4
same,response (milliunits/(ml×cell)),OVATE; parent: est. 7.1,4.7
SlTRM17/20a fragment K318V,response (milliunits/(ml×cell)),SlOFP20; parent: est. 7.9,4.5
same,response (milliunits/(ml×cell)),OVATE; parent: est. 7.2,4.2
SlTRM25 fragment K327V,response (milliunits/(ml×cell)),SlOFP20; parent: est. 4.2,1.9
same,response (milliunits/(ml×cell)),OVATE; parent: est. 4.2,2.1
m3; m1 SlTRM5:R374V; OVATE:D280R,response (milliunits/(ml×cell)),OVATE^D280R; parent: est. 7.1,0.1
m3; m1 SlTRM5:R374V; OVATE:D280V,response (milliunits/(ml×cell)),OVATE D280V; parent: est. 7.1,0.1
m3; m1 SlTRM5:R374V; OVATE:E299V,response (milliunits/(ml×cell)),OVATE E299V; parent: est. 7.1,3.1
m3; m2 SlTRM5:R374V; SlOFP20:D265R,response (milliunits/(ml×cell)),SlOFP20^D265R; parent: est. 5.2,0.1
m3; m2 SlTRM5:R374V; SlOFP20:D265V,response (milliunits/(ml×cell)),SlOFP20 D265V; parent: est. 5.2,0.1
m3; m2 SlTRM5:R374V; SlOFP20:D284V,response (milliunits/(ml×cell)),SlOFP20 D284V; parent: est. 5.2,2.4
m4; m1 SlTRM17/20a:K318V; OVATE:D280R,response (milliunits/(ml×cell)),OVATE^D280R; parent: est. 7.2,0.25
m4; m1 SlTRM17/20a:K318V; OVATE:D280V,response (milliunits/(ml×cell)),OVATE D280V; parent: est. 7.2,0.9
m4; m1 SlTRM17/20a:K318V; OVATE:E299V,response (milliunits/(ml×cell)),OVATE E299V; parent: est. 7.2,4.1
m4; m2 SlTRM17/20a:K318V; SlOFP20:D265R,response (milliunits/(ml×cell)),SlOFP20^D265R; parent: est. 7.9,3
m4; m2 SlTRM17/20a:K318V; SlOFP20:D265V,response (milliunits/(ml×cell)),SlOFP20 D265V; parent: est. 7.9,3.6
m4; m2 SlTRM17/20a:K318V; SlOFP20:D284V,response (milliunits/(ml×cell)),SlOFP20 D284V; parent: est. 7.9,4.8
m5; m1 SlTRM25:K327V; OVATE:D280R,response (milliunits/(ml×cell)),OVATE^D280R; parent: est. 4.2,0.1
m5; m1 SlTRM25:K327V; OVATE:D280V,response (milliunits/(ml×cell)),OVATE D280V; parent: est. 4.2,0.1
m5; m1 SlTRM25:K327V; OVATE:E299V,response (milliunits/(ml×cell)),OVATE E299V; parent: est. 4.2,2.3
m5; m2 SlTRM25:K327V; SlOFP20:D265R,response (milliunits/(ml×cell)),SlOFP20^D265R; parent: est. 4.2,0.1
m5; m2 SlTRM25:K327V; SlOFP20:D265V,response (milliunits/(ml×cell)),SlOFP20 D265V; parent: est. 4.2,0.1
m5; m2 SlTRM25:K327V; SlOFP20:D284V,response (milliunits/(ml×cell)),SlOFP20 D284V; parent: est. 4.2,0.25

# From paper PMC6226536
